This is an account of results in patent publication US20140100836A1 (ETH ZURICH, published 2014).

Non-standard residues stand in square brackets, D forms with d. Phe(4-NO2) = N[C@@H](Cc1ccc([N+](=O)[O-])cc1)C(=O)O

The data set addresses T1, acceptor hexapeptide Ac-DQNATF{4NO2}-NH2 (SMILES CC(=O)N[C@@H](CC(=O)O)C(=O)N[C@@H](CCC(N)=O)C(=O)N[C@@H](CC(N)=O)C(=O)N[C@@H](C)C(=O)N[C@H](C(=O)N[C@@H](Cc1ccc([N+](=O)[O-])cc1)C(N)=O)[C@@H](C)O).
T1 construct: also called DQNATF{pNO2}; acceptor peptide
T1 peptide: Ac-DQNAT[Phe(4-NO2)]-NH2
Put plainly: calculated from the X-ray co-crystal structure with areaimol.

B1: oligosaccharyltransferase (OST) PgIB from Campylobacter lari, full length, with C-terminal decahistidine affinity tag (expressed from pSF2, purified in DDM and … (enzyme)
chain: MELQQNFTDNNSIKYTCILILIAFAFSVLCRLYWVAWASEFYEFFFNDQLMITTNDGYAFAEGARDMIAGFHQPNDLSYFGSSLSTLTYWLYSILPFSFESIILYMSTFFASLIVVPIILIAREYKLTTYGFIAALLGSIANSYYNRTMSGYYDTDMLVLVLPMLILLTFIRLTINKDIFTLLLSPIFIMIYLWWYPSSYSLNFAMIGLFGLYTLVFHRKEKIFYLAIALMIIALSMLAWQYKLALIVLLFAIFAFKEEKINFYMIWALIFISISILHLSGGLDPVLYQLKFYVFKASDVQNLKDAAFMYFNVNETIMEVNTIDPEVFMQRISSSVLVFILSFIGFILLCKDHKSMLLALPMLALGFMALRAGLRFTIYAVPVMALGFGYFLYAFFNFLEKKQIKLSLRNKNILLILIAFFSISPALMHIYYYKSSTVFTSYEASILNDLKNKAQREDYVVAWWDYGYPIRYYSDVKTLIDGGKHLGKDNFFSSFVLSKEQIPAANMARLSVEYTEKSFKENYPDVLKAMVKDYNQTSAKDFLESLNDKNFKFDTNKTRDVYIYMPYRMLRIMPVVAQFANTNPDNGEQEKSLFFSQANAIAQDKTTGSVMLDNGVEIINDFRALKVEGASIPLKAFVDIESITNGKFYYNEIDSKAQIYLLFLREYKSFVILDESLYNSAYIQMFLLNQYDQDLFEQVTNDTRAKIYRLKR
notes: Residues 283-306, 605-607 and the His tag are disordered in the structure; also called C. lari PgIB; PglB
Turning to B1, the “contact surface of the peptide buried at the interface of the TM and periplasmic domains” value is around 80%.
